Literature values in publication PMC8296985, “A Covalent Calmodulin Inhibitor as a Tool to Study Cellular Mechanisms of K-Ras-Driven Stemness” (Frontiers in Cell and Developmental Biology, 2021).

Legend:
[1] = target: Calmodulin (Homo sapiens) (UniProt P0DP23); experiment: fluorescence polarization
[2] = target: Calmodulin N-terminal lobe (Homo sapiens) (UniProt P0DP23)
[3] = target: Calmodulin C-terminal lobe (Homo sapiens) (UniProt P0DP23)

Substance | Kd [1] | Kd [2] | Kd [3]
F-PMCA peptide (from UniProt P20020) | 6 nM |  | 
K-Ras (from UniProt P01116) |  | 4000 nM | 500 nM
